“Also recorded” adds a separate entry of the source.
B1: enolase derived from P. falciparum: P. falciparum-derived enolase, a glycolytic enzyme, used as vaccine antigen (protein, UniProt Q8IJN7 1-446, looked up)
Enolase: MAHVITRINAREILDSRGNPTVEVDLETNLGIFRAAVPSGASTGIYEALELRDNDKSRYLGKGVQKAIKNINEIIAPKLIGMNCTEQKKIDNLMVEELDGSKNEWGWSKSKLGANAILAISMAVCRAGAAANKVSLYKYLAQLAGKKSDQMVLPVPCLNVINGGSHAGNKLSFQEFMIVPVGAPSFKEALRYGAEVYHTLKSEIKKKYGIDATNVGDEGGFAPNILNANEALDLLVTAIKSAGYEGKVKIAMDVAASEFYNSENKTYDLDFKTPNNDKSLVKTGAQLVDLYIDLVKKYPIVSIEDPFDQDDWENYAKLTAAIGKDVQIVGDDLLVTNPTRITKALEKNACNALLLKVNQIGSITEAIEACLLSQKNNWGVMVSHRSGETEDVFIADLVVALRTGQIKTGAPCRSERNAKYNQLLRIEESLGNNAVFAGEKFRLQLN

Assays:
plasminogen [1] = molecular target: T1, plasminogen (Homo sapiens, UniProt P00747); assay: Reactivity of peptide library with plasminogen, Dot-Blot method; format: binding; settings: peptide immobilized on nitrocellulose film; HRP-labeled anti-plasminogen antibody; DAB staining
Description: FIG. 11 is a photograph after staining with DAB reagent in a Dot-Blot measurement, for detecting the binding between each of the peptide 1 to peptide 8 and plasminogen. The numbers 1 to 8 in FIG. 11 indicate the locations at which peptide solutions of the peptide 1 to peptide 8 were dropped, respectively, and P indicates the locations at which plasminogen solutions (positive control) were dropped.
(§1) A peptide library of peptides 1 to 8 (SEQ ID NOs: 10 to 17), which are divided peptides obtained from a 35-residue sequence of 254th to 288th residues (FIG. 2) of the amino acid sequence of the parasite enolase, was used. Each of the peptides of the peptide library was allowed to react with plasminogen using a Dot-Blot method and an ELISA method, thereby carrying out a search for an amino acid sequence recognized by plasminogen.
The reactivity of the peptides was measured by a Dot-Blot method, using a 10% acetonitrile solution of each of 8 types of peptides, peptide 1 to peptide 8, by the following steps in the following order; (a) immobilization of each peptide on a nitrocellulose film (pore size: 0.45 μm); (b) reaction with plasminogen in a plasminogen solution; (c) reaction with an HRP-labeled anti-plasminogen antibody; and (d) DAB staining.

plasminogen [2] = molecular target: T1, plasminogen; assay: Reactivity of peptide library with plasminogen, ELISA method; format: binding; settings: peptide immobilized in wells; plasminogen 1 μg/well; HRP modified anti-plasminogen antibody, TMB staining
Description: FIG. 12 is a photograph of a plate after staining with TMB reagent in an ELISA measurement, for detecting the binding between each of the peptide 1 to peptide 8 and plasminogen. Each of the peptide 1 to peptide 8 was immobilized in each of the wells of the plate, and then allowed to react with plasminogen. Detection of binding was carried out by staining with an HRP modified-anti-plasminogen antibody and TMB reagent.
FIG. 13 is a graph of absorbance data (at 450 nm) taken after staining with TMB in an ELISA measurement, for detecting the binding between each of the peptide 1 to peptide 8 and plasminogen (plasminogen concentration: 1 μg/well).
as §1
Next, in order to digitize and quantify the reaction of the peptide library with plasminogen, the detection of binding by an ELISA method was carried out.

P. falciparum = assay: Vaccine trial in owl monkeys; format: in vivo; settings: 13 owl monkeys, vaccinated
Description: Subsequently, a vaccine trial was carried out using as antigens enolase derived from P. falciparum and an AD22 partial sequence peptide, and using 13 owl monkeys. The changes in the percentage of parasitism of P. falciparum in red blood cells in the peripheral blood of the owl monkeys were plotted.
The antigen which causes owl monkeys to acquire immunity is a chemically synthesized peptide antigen having a tandem structure in which four 22-residue peptides (AD22) are tandemly arranged, and has a structure represented by the following Structural Formula (A). Although Xaa in the Structural Formula (A) of the antigen is arbitrary, a Cys(Acm) residue, which is a Cys residue whose side chain is protected by an acetamidomethyl group, is used at this time.

T1 sequence (P00747 20-810 limits assumed): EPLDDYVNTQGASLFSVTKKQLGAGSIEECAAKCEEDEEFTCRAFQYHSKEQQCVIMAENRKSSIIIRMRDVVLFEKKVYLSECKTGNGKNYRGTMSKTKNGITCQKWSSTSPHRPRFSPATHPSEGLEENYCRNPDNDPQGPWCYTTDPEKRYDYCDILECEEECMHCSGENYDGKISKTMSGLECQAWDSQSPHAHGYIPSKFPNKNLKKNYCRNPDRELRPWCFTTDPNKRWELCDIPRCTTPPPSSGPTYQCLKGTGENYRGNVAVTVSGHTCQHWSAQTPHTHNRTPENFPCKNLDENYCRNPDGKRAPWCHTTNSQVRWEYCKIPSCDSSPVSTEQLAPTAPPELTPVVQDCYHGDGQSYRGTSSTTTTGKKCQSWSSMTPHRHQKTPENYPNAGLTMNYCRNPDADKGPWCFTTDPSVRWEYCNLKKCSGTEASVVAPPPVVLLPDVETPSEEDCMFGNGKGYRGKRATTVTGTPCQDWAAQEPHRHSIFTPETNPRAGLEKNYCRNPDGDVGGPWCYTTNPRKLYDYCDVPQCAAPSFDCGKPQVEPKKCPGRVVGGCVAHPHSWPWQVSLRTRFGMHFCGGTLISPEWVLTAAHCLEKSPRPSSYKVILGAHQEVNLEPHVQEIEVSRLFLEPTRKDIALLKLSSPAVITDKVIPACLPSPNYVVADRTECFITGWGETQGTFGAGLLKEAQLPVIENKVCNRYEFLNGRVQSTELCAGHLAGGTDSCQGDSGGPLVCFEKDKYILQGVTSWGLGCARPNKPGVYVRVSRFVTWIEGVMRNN

Molecule	binding of peptide chains with plasminogen (plasminogen [1])	reactivity with plasminogen (absorbance at 450 nm) (plasminogen [2])	percentage of parasitism of P. falciparum in red blood cells in the peripheral blood (P. falciparum)
peptide 7: 25-residue peptide sequence from the 254th to 288th residues of parasite enolase; SEQ ID NO: 16 (VAASEFYNSENKTYDLDFKTPNNDK; listed as Plasmodium falciparum)	binding of peptide chains with plasminogen was observed	high reactivity with plasminogen	
peptide 8: 35-residue peptide sequence, 254th to 288th residues of parasite enolase; SEQ ID NO: 17 (VAASEFYNSENKTYDLDFKTPNNDKSLVKTGAQLVK; listed as Plasmodium falciparum)	binding of peptide chains with plasminogen was observed	high reactivity with plasminogen	
5: 10-residue divided peptide from the 254th to 288th residue sequence of parasite enolase; SEQ ID NO: 14 (PNNDKSLVKTK; listed as Plasmodium falciparum) [compound 5]		relatively high reactivity with plasminogen	
peptide 3: 10-residue divided peptide of parasite enolase, NKT sequence then YDLDFKT sequence; SEQ ID NO: 12 (NKTYDLDFKTK; listed as Plasmodium falciparum)	binding of peptide chains with plasminogen was observed	relatively high reactivity with plasminogen; also recorded: highest reactivity with plasminogen, among the 10-residue peptides	
2: divided peptide from the 254th to 288th residue sequence of parasite enolase; SEQ ID NO: 11 (FYNSENKTYDK; listed as Plasmodium falciparum) [compound 2]	binding of peptide chains with plasminogen was observed		
B1			a rapid increase in the percentage of parasitism was in inhibited
